From US20230312724A1 (KADMON, published 2023)

T1: human B7-H4-his (human, UniProt Q7Z7D3 25-259)
T1 construct: also called hB7-H4-his; hB7-H4 his; not shown: his tag
T1 sequence: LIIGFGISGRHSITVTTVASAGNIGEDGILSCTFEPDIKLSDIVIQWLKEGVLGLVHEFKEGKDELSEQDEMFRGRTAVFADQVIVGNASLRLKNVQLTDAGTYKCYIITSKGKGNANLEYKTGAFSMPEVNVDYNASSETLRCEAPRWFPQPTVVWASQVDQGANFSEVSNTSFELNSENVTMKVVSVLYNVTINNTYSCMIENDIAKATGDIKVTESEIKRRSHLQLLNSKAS

T2: hB7-H4 (soluble human B7-H4, construct not named) (human, UniProt Q7Z7D3 25-259, limits assumed)
T2 construct: also called soluble hB7-H4
T2 sequence: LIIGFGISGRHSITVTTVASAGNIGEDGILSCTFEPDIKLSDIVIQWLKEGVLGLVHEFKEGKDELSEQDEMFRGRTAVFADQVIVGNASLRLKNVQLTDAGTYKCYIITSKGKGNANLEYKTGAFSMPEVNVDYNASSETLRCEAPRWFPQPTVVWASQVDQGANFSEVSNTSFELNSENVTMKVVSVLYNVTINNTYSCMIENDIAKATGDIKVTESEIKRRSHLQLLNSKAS

T3: mB7-H4 (soluble mouse B7-H4, construct not named) (mouse, UniProt Q7TSP5 25-257, limits assumed)
T3 sequence: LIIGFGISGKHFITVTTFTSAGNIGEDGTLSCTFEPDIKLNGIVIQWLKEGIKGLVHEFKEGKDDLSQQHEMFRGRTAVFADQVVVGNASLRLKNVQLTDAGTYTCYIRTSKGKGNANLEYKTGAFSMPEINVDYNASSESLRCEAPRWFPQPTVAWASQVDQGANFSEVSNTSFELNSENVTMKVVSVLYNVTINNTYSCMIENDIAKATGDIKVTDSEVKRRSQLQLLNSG

T4: human B7-H4 expressed on cells (human, UniProt Q7Z7D3 25-282)
T4 construct: Transfected CHO cells or tumor cell lines that carry hB7-H4; also called cellular hB7-H4
T4 sequence: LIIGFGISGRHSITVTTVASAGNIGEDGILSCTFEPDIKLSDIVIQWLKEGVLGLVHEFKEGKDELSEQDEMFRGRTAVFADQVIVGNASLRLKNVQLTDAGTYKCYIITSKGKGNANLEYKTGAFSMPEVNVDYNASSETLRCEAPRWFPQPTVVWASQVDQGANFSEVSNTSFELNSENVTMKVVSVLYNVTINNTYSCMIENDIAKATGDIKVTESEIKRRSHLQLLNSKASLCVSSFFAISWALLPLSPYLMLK

T5: mouse B7-H4 expressed on cells (mouse, UniProt Q7TSP5 25-257)
T5 construct: also called cellular mB7-H4; mB7-H4/CT26
T5 sequence: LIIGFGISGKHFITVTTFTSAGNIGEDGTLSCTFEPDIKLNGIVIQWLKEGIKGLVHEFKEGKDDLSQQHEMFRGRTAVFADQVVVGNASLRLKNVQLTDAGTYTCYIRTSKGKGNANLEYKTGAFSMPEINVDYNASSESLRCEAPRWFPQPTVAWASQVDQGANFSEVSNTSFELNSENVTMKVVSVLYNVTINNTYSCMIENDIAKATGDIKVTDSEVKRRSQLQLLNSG

T6: mouse B7-H4-his (mouse, UniProt Q7TSP5 25-257)
T6 construct: also called mB7-H4-his; mB7-H4-His; not shown: his tag
T6 sequence: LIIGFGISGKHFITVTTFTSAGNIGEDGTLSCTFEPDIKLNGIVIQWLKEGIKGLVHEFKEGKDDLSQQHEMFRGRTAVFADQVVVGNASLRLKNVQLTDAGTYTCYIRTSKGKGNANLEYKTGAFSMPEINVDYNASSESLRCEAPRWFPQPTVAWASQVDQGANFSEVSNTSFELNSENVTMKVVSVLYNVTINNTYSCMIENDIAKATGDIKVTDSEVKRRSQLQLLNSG


How the values were obtained:
human B7-H4-Fc [1] = molecular target: T7, human B7-H4-Fc (human); assay: SPR (Biacore)
T7 construct: also called hB7-H4-Fc; hB7-H4 Fc
Method in brief: (§1)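 Kinetic constants came from a 1:1 Langmuir fit of binding at 25 °C in HBS-EP, pH 7.4. Analyte (100 nM to 0.1 nM) flowed for 180 s, then dissociated for 1000 or 1200 s, over amine-coupled human B7-H4-Fc, human B7-H4-his or mouse B7-H4-Fc surfaces at 50-100 RU.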

human B7-H4-his [2] = molecular target: T1, human B7-H4-his; assay: SPR (Biacore)
Method in brief: as §1

mouse B7-H4-Fc [3] = molecular target: T8, mouse B7-H4-Fc (mouse; human); assay: SPR (Biacore)
T8 construct: also called mB7-H4-Fc; mB7-H4-hFc
Method in brief: as §1

[4] = molecular target: T2, hB7-H4 (soluble human B7-H4, construct …); assay: ELISA, hB7-H4
Method in brief: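 Following overnight 4° C coating with about 1-2 μg/ml B7-H4-Fc or his-tagged protein and 3% PBS+milk blocking, antibody dilution series bind 1-1.5 h at RT. HRP anti-hFab plus TMB yields OD450, from which EC50 is derived.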

[5] = molecular target: T2, hB7-H4 (soluble human B7-H4, construct …); assay: SPR (Biacore)
[6] = molecular target: T3, mB7-H4 (soluble mouse B7-H4, construct …); assay: ELISA, mB7-H4
Description: (§2) About 1-2 μg/ml of human or mouse B7-H4-Fc (or his-tagged) was immobilized on ELISA plates (Immuno 2HB, Thermo scientific, cat #3455) at 4° C. overnight. After blocking the plates with 3% PBS+milk, serial diluted antibodies were added to the blocked plates and incubated at RT for 1-1.5 h. After washing the plates with PBS-T (0.05%), horse radish peroxidase (HRP)-conjugated antibody targeting the hFab was added to the plate. Signals were developed by adding 3,3′,5,5′-Tetramethylbenzidine (TMB (followed 1N of H₂SO₄ to stop the reaction. The OD at 450 nm was read by ELISA plate reader (Infinite M1000 from TECAN). GraphPad from Prism was used to plot OD450 vs. antibody concentration curve and to calculate the EC50 values.

[7] = molecular target: T4, human B7-H4 expressed on cells; assay: flow cytometry, SK-BR-3 cells
[8] = molecular target: T5, mouse B7-H4 expressed on cells; assay: flow cytometry, mB7-H4/CT26 cells
human B7-H4-Fc [9] = molecular target: T7, human B7-H4-Fc; assay: ELISA on coated hB7-H4-Fc
Description: as §2

mouse B7-H4-Fc [10] = molecular target: T8, mouse B7-H4-Fc; assay: ELISA on coated mB7-H4-Fc
Description: as §2

human B7-H4-his [11] = molecular target: T1, human B7-H4-his; assay: ELISA on coated hB7-H4-his
Description: as §2

mouse B7-H4-his = molecular target: T6, mouse B7-H4-his; assay: ELISA on coated mB7-H4-his
Description: as §2

[12] = molecular target: T9, IgC domain of human B7-H4-Fc (human); assay: ELISA, coated hB7-H4 IgC domain
T9 construct: also called hB7-H4 IgC domain

[13] = molecular target: T10, IgV domain of human B7-H4-Fc (human); assay: ELISA on coated IgV domain of hB7-H4
T10 construct: also called hB7-H4 IgV domain

[14] = molecular target: T11, IgV domain of mouse B7-H4-Fc (mouse; human); assay: ELISA on coated IgV domain of mB7-H4
T11 construct: also called mB7-H4 IgV domain

[15] = molecular target: T3, mB7-H4 (soluble mouse B7-H4, construct …); assay: SPR (Biacore); values equal to Table 11

T8 sequence (chain, as listed by the source): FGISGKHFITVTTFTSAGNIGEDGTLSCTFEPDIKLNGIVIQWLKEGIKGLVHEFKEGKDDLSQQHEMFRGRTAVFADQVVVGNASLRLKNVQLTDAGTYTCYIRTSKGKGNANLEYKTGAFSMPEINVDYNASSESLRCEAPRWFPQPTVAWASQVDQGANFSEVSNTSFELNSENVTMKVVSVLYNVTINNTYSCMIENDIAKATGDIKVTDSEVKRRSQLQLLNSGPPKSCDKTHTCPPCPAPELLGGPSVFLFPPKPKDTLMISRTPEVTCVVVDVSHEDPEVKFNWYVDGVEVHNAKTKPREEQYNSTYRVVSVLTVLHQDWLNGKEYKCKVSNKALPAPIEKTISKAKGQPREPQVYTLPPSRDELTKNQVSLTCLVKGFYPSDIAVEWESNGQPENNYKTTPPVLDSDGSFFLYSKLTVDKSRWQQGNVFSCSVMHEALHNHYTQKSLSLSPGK
T7 sequence (chain, as listed by the source): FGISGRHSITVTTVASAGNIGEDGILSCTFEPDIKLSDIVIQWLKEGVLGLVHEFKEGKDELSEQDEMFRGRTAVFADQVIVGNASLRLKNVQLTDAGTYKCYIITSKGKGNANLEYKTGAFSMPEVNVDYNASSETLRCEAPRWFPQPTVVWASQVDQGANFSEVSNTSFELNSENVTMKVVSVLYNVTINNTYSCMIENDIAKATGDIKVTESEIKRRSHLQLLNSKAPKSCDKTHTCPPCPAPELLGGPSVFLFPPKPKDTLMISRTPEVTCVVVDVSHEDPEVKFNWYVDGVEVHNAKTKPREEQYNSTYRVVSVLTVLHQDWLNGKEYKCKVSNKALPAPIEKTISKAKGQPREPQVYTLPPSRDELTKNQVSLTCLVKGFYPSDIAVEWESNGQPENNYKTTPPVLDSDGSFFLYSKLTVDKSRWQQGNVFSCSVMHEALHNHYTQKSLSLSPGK
T10 sequence (chain, as listed by the source): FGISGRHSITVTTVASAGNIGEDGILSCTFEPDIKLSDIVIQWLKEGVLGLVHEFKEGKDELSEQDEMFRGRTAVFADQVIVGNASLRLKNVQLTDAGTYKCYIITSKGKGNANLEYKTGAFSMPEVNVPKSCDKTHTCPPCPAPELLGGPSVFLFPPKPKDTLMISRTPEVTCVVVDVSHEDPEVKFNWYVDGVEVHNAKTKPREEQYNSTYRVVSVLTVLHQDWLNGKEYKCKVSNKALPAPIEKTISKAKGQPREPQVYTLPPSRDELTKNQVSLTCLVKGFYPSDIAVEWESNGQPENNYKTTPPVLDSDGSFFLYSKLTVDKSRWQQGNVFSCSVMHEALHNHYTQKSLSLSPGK
T9 sequence (chain, as listed by the source): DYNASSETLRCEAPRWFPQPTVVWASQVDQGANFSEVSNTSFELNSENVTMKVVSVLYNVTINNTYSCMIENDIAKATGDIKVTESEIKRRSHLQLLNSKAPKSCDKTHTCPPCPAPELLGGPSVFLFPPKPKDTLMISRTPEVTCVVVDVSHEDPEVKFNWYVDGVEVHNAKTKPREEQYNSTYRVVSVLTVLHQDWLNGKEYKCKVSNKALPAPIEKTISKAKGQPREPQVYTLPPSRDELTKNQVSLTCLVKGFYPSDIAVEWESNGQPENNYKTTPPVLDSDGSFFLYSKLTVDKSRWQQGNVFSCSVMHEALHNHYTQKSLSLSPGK
T11 sequence (chain, as listed by the source): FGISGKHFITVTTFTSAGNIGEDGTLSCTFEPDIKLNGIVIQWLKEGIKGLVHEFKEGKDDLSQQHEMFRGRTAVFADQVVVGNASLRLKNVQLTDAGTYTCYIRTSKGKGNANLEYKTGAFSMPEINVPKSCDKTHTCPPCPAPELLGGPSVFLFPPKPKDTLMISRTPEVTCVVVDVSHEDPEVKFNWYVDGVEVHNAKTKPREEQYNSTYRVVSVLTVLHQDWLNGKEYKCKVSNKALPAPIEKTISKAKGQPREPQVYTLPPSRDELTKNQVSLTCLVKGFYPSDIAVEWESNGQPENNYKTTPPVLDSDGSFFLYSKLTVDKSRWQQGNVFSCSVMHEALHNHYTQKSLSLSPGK

Kd (human B7-H4-Fc [1]) [pM]	Kd (human B7-H4-his [2]) [pM]	Kd (mouse B7-H4-Fc [3]) [pM]	EC50 [4] [pM]	Kd [5] [pM]	EC50 [6] [pM]	EC50 [7] [pM]	EC50 [8] [pM]	EC50 (read off the curve) (human B7-H4-Fc [9]) [pM]	EC50 (read off the curve) (mouse B7-H4-Fc [10]) [pM]	EC50 (read off the curve) (human B7-H4-his [11]) [pM]	EC50 (read off the curve) (mouse B7-H4-his) [pM]	binding result [12]	EC50 (read off the curve) [13] [pM]	EC50 (read off the curve) [14] [pM]	Kd [15] [pM]	Binder
107	35.5	51.8	60	152	51	2820	7820	~80	~80	~100	~100	no binding (tested: log 1 nM (10 nM))	~100	~70	152	39A11/57G8 (antibody, human IgG1, V domains shown, 39A11 VH with 57G8 VL) VH: EVQLLESGGGLVQPGGSLRLSCAASGFTFSSYGMHWVRQAPGKGLEWVASISSSSGYIYYADSVKGRFTISRDNSKNTLYLQMNSLRAEDTAVYYCARASSGMDVWGQGTTVTVSS VL: DIQMTQSPSSLSASVGDRVTITCRASQSIRSYLNWYQQKPGKAPKLLIYYASSLQSGVPSRFSGSGSGTDFTLTISSLQPEDFATYYCQQYYSTPLTFGQGTKVEIK
450	110	509	106	499	139	2640	2060	~100	~100	~200	~200	no binding (tested: log 1 nM (10 nM))	~200	~400	499	Control antibody 1 (antibody 20502 described in US20190085080A1) (antibody, V domains shown, also called (+) control Ab1; (+) Ab1) VH: QLQLQESGPGLVKPSETLSLTCTVSGGSIKSGSYYWGWIRQPPGKGLEWIGNIYYSGSTYYNPSLRSRVTISVDTSKNQFSLKLSSVTAADTAVYYCAREGSYPNQFDPWGQGTLVTVSS VL: EIVMTQSPATLSVSPGERATLSCRASQSVSSNLAWYQQKPGQAPRLLIYGASTRATGIPARFSGSGSGTEFTLTISSLQSEDFAVYYCQQYHSFPFTFGGGTKVEIK
